From US20050287542 come the findings set out here.

The target in data set [1] is G27 (isolated GCN4 basic region) (UniProt P03069). The data set is described as follows: EMSA. (A gel shift assay detects complexes by their altered migration in electrophoresis.)
In data set [2] the test system is p012 (Artificial Sequence). The data set is described as follows: EMSA. The settings on record: 4 C.
Data set [3] concerns p016 (Artificial Sequence). The data set is described as follows: EMSA. The settings on record: 4 C.
In data set [4] the test system is T1, PPBR4SR (PPBR4) (Artificial Sequence).
T1 sequence: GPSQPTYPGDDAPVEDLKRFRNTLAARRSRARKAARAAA
The data set is described as follows: EMSA.

The target of data set [5] is G56 (GCN4 bZIP element) (UniProt P03069). The data set is described as follows: EMSA.
Data set [6] deals with T2, PPBR2SR (Artificial Sequence).
T2 sequence: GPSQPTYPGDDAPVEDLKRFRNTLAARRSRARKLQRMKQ
The data set is described as follows: EMSA. Conditions: physiological ionic strength, on ice.

In data set [7] the test system is p011 (Artificial Sequence). The data set is described as follows: EMSA. Conditions: 4 C.
Data set [8] has as its system T3, PPBR4-deltaSR (Artificial Sequence).
T3 sequence: T1 sequence with A31L
The data set is described as follows: EMSA. Conditions: hydrophobic core disrupted; scale: kcal/mol less stable than PPBR4SR-hsCRE24.

The test system of data set [9] is p007 (Artificial Sequence). The data set is described as follows: EMSA.
Data set [10] concerns PPBR4 on phage (Artificial Sequence). The data set is described as follows: pulldown. Conditions: phage panning, PBS, 0.1% NP-40, 2.5 ug/ml poly-dIdC, 4 C.
Data set [11] relates to aPP (avian pancreatic polypeptide) (avian). The data set is described as follows: pulldown. The settings on record: phage panning, negative control; computed from the stated 10-fold.
The subject of data set [12] is p007 (Artificial Sequence). Conditions: scale: fold average specificity ratio for hsCRE over any site in CT DNA.

Numbering of substitutions follows the chain as printed.

Take hsCRE24: the Kd (in general, the constant that tells how readily two partners part at equilibrium) is 410 nM in data set [1] (4 C); 2.5 nM in data set [2]; 0.3 nM in data set [3]; 1.9 nM in [4] (PPBR4, 4 C); 1.5 nM in [4] (physiological ionic strength, on ice); 5 nM in data set [6]. For the same substance, the dissociation constant Kd in [7] stood at 1.5 nM; in data set [9] (4 C, PBS-type buffer with 1 mM EDTA), 0.023 nM; in data set [9] (25 C) it was 1.6 nM. The binding signal in data set [1] (lacks polyproline helix and turn, scale: kcal/mol less stable than PPBR4SR-hsCRE24) was determined as 3.1; in [8] it was 3.2. Further, in data set [5], the binding signal (fold preference over hsCEBP24) came out at 180.

As for hsCRE24 on beads, the binding signal (fold retention over aPP phage) in [10] was found to be 10. The binding signal (fold retention relative to PPBR4 phage) in data set [11] was 0.1.

As for calf thymus DNA, the binding signal in [12] is 4170.

hsCEBP24: the binding signal in data set [4] (ddG -4.4 kcal/mol, scale: fold specificity ratio for hsCRE24 over hsCEBP24) was 2600; in data set [5] (ddG -2.9 kcal/mol, scale: fold specificity ratio for hsCRE24 over hsCEBP24), 180.
